This is an account of results in PMC3220887 (Structure (London, England : 1993), 2011).

The series concerns the molecule itself. Nature of the series: dynamic light scattering.

B1: D48V-GLTP (human glycolipid transfer protein, D48V mutant) (natural protein, UniProt Q9NZD2 1-209, looked up)
chain: MALLAEHLLKPLPADKQIETGPFLEAVSHLPPFFDCLGSPVFTPIKAVISGNITKIKAVYDTNPAKFRTLQNILEVEKEMYGAEWPKVGATLALMWLKRGLRFIQVFLQSICDGERDENHPNLIRVNATKAYEMALKKYHGWIVQKIFQAALYAAPYKSDFLKALSKGQNVTEEECLEKIRLFLVNYTATIDVIYEMYTQMNAELNYKV
For the protein B1, the “stoichiometry N” value was 2.
